Reference: patent US20220340657A1 (L AND L BIO CO LTD NINGBO CHINA, published 2022)
Numbering of substitutions follows the chain as printed. Several values for one entry are separate records, joined by “and”; a condition that tells them apart may be missing. Identical values can stand only once. Like-named read-outs stand apart in the source and are kept apart here.

T1: bio-LAG3-mFc (human, UniProt P18627 23-450, biotin-labelled)
T1 construct: also called hLAG-3
T1 sequence (looked up): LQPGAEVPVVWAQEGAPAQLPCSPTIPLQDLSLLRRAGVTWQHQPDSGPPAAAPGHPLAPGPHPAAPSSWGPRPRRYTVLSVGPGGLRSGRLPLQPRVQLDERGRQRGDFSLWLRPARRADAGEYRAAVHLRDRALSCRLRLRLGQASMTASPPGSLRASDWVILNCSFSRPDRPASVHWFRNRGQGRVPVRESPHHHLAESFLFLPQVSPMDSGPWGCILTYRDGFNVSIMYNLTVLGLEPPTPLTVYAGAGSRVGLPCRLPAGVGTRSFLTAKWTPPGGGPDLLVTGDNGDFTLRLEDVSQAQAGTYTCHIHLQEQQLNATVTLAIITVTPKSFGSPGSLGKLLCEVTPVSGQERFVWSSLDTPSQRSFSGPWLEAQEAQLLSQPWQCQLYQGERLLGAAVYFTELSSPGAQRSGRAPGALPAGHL

T2: human LAG-3 on CHO-K1 cells (hLAG-3+ cells) (human, UniProt P18627 23-525)
T2 construct: whole, on cells; Cells fixed in the cell ELISA; also called CHO-K1hLAG-3+ cell strain
T2 sequence (looked up): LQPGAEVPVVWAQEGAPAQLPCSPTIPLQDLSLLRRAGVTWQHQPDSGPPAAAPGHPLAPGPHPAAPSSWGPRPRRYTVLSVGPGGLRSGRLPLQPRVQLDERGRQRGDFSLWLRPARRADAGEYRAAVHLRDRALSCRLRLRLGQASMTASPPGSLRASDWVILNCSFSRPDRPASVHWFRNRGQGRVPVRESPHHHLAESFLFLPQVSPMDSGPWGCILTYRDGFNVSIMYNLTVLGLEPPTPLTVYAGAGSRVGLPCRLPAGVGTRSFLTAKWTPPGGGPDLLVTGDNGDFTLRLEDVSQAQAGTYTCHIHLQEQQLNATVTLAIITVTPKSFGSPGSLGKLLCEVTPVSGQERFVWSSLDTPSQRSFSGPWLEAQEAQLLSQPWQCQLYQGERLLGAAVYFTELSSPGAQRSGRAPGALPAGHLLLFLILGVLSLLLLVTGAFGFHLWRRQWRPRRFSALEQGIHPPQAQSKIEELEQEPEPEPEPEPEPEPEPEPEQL

T3: hLAG-3-D12-his (human, UniProt P18627 23-239)
T3 construct: range 23-239
T3 sequence: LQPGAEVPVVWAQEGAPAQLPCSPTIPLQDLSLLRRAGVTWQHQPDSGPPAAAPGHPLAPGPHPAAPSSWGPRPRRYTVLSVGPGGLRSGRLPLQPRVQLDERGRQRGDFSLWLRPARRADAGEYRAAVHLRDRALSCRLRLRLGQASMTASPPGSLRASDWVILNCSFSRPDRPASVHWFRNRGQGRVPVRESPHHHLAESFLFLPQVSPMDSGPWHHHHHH

T4: human LAG-3-his (human, UniProt P18627 23-422)
T4 construct: range 23-422; also called hLAG-3-his; hLAG-3
T4 sequence: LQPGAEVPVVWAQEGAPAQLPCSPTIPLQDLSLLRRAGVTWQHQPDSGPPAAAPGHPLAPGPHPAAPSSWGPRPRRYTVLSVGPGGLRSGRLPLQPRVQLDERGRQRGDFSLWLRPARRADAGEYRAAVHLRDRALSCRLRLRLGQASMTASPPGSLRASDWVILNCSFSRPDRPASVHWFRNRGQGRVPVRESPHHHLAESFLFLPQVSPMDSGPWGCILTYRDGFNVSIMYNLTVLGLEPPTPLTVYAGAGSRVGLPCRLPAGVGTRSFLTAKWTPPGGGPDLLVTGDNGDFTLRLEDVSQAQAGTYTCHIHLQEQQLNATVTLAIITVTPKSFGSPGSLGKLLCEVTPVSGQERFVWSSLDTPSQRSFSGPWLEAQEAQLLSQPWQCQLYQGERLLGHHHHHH

B1: humanized anti-human LAG-3 antibody Ab2317 (antibody, human IgG4 S228P, kappa, V domains shown)
VH: QVQLVQSGAEVKKPGASVKVSCKASGYTFTDYEMHWVKQAPGQGLEWIGGIDPETEGIAYNQKFRGRATLTADKSTSTAYMELRSLRSDDTAVYYCTNSNYYGGREAWFAYWGQGTLVTVSS
VL: DIQMTQSPSSLSASVGDRVTITCRASQDIGSSLNWYQQKPGKAPKRLIYATSSLDSGVPSRFSGSRSGSDFTLTISSLQPEDFATYYCLQYVTSPLTFGGGTKVEIKR
notes: LG2317 / LG2343, human kappa / hIgG4
B2: humanized antibody Ab2325 (antibody, human IgG4 S228P, kappa, V domains shown)
VH: B1 VH with I48M, L70M, A72T, K74T, T97A
VL: B1 VL
notes: LG2317 / LG2348, human kappa / hIgG4

Tests used:
bio-LAG3-mFc [1] = molecular target: T1, bio-LAG3-mFc; test: blocking ELISA, LAG-3 on Daudi cells
bio-LAG3-mFc [2] = molecular target: T1, bio-LAG3-mFc; test: blocking ELISA, LAG-3 on Daudi cells; remark: listed apart in the source
[3] = molecular target: T2, human LAG-3 on CHO-K1 cells (hLAG-3+ …); test: cell ELISA on fixed CHO-K1 hLAG-3+ cells
Description: After washing with PBS (BasalMedia Biology, Cat. No.: B320) once, 5% milk was added with 230 μl per well, and the microplate was incubated for 2 hours at 37° C. for blocking, and then was washed three times with PBST. After washing, each well was added with 50 μl sample (the samples were 5-fold serially diluted with an initial concentration of 10 μg/ml). The microplate was then incubated for 1 hour at 37° C. and washed 5 times with PBST. […] After washing the microplate 5 times with PBST, 50 μl/well TMB (Sunnodic, Cat. No.: TTMB-1000-01) was added to the microplate for color development. Finally, 50 μl/well of 1M H₂SO₄ was added to stop the reaction. The microplate was then read by a microplate reader (MultiskanGO Thermo, model 511919200), and the data were analyzed using Graphpad prism 5.

hLAG-3-D12-his = molecular target: T3, hLAG-3-D12-his; test: ELISA
Description: (§1) After discarding the liquid, a blocking solution of 5% skimmed milk (Bright skimmed milk powder) diluted with PBS was added at 230 μl per well, followed by incubating at 37° C. for 3 hours or 4° C. overnight (16-18 hours) for blocking. Subsequently, the blocking solution was discarded, and the micropiate was washed 5 times with PBST buffer (pH 7.4 PBS containing 0.05% tweeen-20). Then 50 μl/well of the supernatant (containing the antibody to be tested) or a starting concentration of 10 μg/ml of the antibody to be tested, which was diluted 5 times in gradient, was added, followed by incubating the mixture for 1 hour at 37° C. […] After washing the microplate 5 times with PBST, 50 μl/well TIMB chromogenic substrate (KPL, Cat. No.: 52-00-03) was added, and then incubated for […] at room temperature. Finally, 50 μl/well of 1 M H₂SO₄ was added to stop the reaction. The absorbance value at 450 nm was read by […] GO microplate reader (ThermoFisher, Cat. No.: 51119200). The clones with high affinity were selected according to the OD value or the EC₅₀ value was calculated (for antibodies with known concentrations).

human LAG-3-his [4] = molecular target: T4, human LAG-3-his; test: ELISA
Description: as §1

human LAG-3-his [5] = molecular target: T4, human LAG-3-his; test: ELISA on hLAG-3
Description: as §1

human LAG-3-his [6] = molecular target: T4, human LAG-3-his; test: ELISA on human LAG-3, same experiment

Binder | IC50 (bio-LAG3-mFc [1]) [nM] | IC50 (bio-LAG3-mFc [2]) [nM] | EC50 [3] [nM] | EC50 (hLAG-3-D12-his) [nM] | EC50 (human LAG-3-his [4]) [nM] | EC50 (human LAG-3-his [5]) [nM] | EC50 (human LAG-3-his [6])
B1 | 1.64 | 2.7 | 0.2 | 1.71 | 0.16 | 0.119 | 0.287 nM and 0.579 nM and 0.44 nM
B2 | 1.76 | 3.6 | 0.19 | 1.51 | 0.19 | 0.142 | 0.312 nM
